Measured values reported in patent US20110256153A1 (IMMUNOGEN, published 2011).

Columns and labels:
human CD37 [1] = molecular target: T1, human CD37 (human, UniProt P11049 1-278); experiment: flow cytometry titration on BJAB cells (FIG. 20B); apparent Kd
T1 construct: Tetraspanin antigen; Expressed on 300-19 cells transfected with pSRa-CD37 (entire CDS) or endogenous on WSU-DLCL-2, BJAB and Ramos lymphoma cells; also called CD37 antigen; human CD37 wildtype
T1 sequence: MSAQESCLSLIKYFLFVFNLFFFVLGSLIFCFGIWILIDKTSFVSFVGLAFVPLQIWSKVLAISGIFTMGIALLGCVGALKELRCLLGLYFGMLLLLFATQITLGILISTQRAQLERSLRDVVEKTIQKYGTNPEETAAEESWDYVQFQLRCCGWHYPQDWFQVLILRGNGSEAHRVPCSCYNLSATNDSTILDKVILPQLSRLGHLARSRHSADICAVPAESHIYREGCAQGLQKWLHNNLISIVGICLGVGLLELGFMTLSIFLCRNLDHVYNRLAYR

human CD37 [2] = molecular target: T1, human CD37; experiment: cell-based or functional assay
human CD37 [3] = molecular target: T1, human CD37; experiment: flow cytometry titration; apparent Kd; cells not named
human CD37 [4] = molecular target: T1, human CD37; experiment: flow cytometry titration on BJAB cells; apparent Kd
Procedure: (§1) Binding specificity was tested by flow cytometry using purified antibodies. […] All murine antibodies were incubated for 3 h with either CD37-expressing 300-19 cells or the non-transfected 300-19 cells (1×10⁵ cells per sample) in 100 μL FACS buffer (RPMI-1640 medium supplemented with 2% normal goat serum). Then, the cells were pelleted, washed, and incubated for 1 h with 100 μL of FITC-conjugated goat anti-mouse IgG-antibody (Jackson Laboratory, 6 μg/mL in FACS buffer). The cells were pelleted again, washed with FACS buffer and resuspended in 200 μL of PBS containing 1% formaldehyde. Samples were acquired using a FACSCalibur flow cytometer with the HTS multiwell sampler or a FACS array flow cytometer and analyzed using CellQuest Pro (all from BD Biosciences, San Diego, US).
The humanized antibodies huCD37-38, huCD37-50, huCD37-51, huCD37-56 and chCD37-57 were assayed for their binding affinity to BJAB cells in comparison to their murine counterparts. Flow cytometry binding assays were carried out using secondary FITC-conjugated goat-anti-murine and -anti-human antibodies, analyzed as described in Example 2 and dose-response curves were generated by non-linear regression for each antibody. The value for the apparent dissociation constant (Kd) of each antibody was calculated using GraphPad Prism v4 (GraphPad software, San Diego, Calif.).

macaque CD37 [5] = molecular target: T2, macaque CD37 (macaque, UniProt P11049 1-277 (human entry)); experiment: flow cytometry, 300-19/CD37mac cells
T2 construct: Expressed on 300-19 cells transfected with pSRa-CD37mac (300-19/CD37mac cells); also called macaca CD37; macaque derived CD37 antigen
T2 chain: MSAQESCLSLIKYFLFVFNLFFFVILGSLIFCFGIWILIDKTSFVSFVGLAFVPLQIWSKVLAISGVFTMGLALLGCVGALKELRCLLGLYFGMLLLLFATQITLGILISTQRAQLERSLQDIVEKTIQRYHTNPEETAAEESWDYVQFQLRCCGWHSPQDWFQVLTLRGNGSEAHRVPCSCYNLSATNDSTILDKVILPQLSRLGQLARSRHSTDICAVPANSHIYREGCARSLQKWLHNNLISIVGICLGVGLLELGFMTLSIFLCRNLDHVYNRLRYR
Procedure: as §1
The murine antibodies muCD37-3, muCD37-12, muCD37-38, […], muCD37-51, muCD37-56 and muCD37-57 were assayed for their ability to bind to 300-19/CD37mac cells expressing macaque CD37. Flow cytometry binding assays were carried out using secondary FITC-conjugated goat-anti-murine or goat-anti-human antibodies, analyzed as described in Example 2. Binding was compared to the previously described anti-CD37 antibody WR17 and the anti-CD37 SMIP TRU-016. […] In contrast, muCD37-3, muCD37-12, the previously described anti-CD37 antibody WR17 and the anti-CD37 SMIP TRU-016 are unable to bind the macaque derived CD37 antigen.

human CD37 [6] = molecular target: T1, human CD37; experiment: flow cytometry titration on BJAB cells (FIG. 20A); apparent Kd
human CD37 [7] = molecular target: T1, human CD37; experiment: flow cytometry titration on Ramos cells; apparent Kd
Procedure: as §1
The chimeric antibodies chCD37-3 and chCD37-12 were assayed for their binding affinity to Ramos cells in comparison to their murine counterparts. Flow cytometry binding assays using Ramos cells and muCD37-3, chCD37-3, muCD37-12 and chCD37-12 antibodies were carried out and analyzed as described in Example 2 using secondary FITC-conjugated goat-anti-murine and -anti-human antibodies. FIG. 9A depicts the dose-response curves generated by non-linear regression for each antibody. The value for the apparent dissociation constant (Kd) of each antibody was calculated using GraphPad Prism v4 (GraphPad software, San Diego, Calif.).

human CD37 [8] = molecular target: T1, human CD37; experiment: competition flow cytometry on BJAB cells; competitor PE-labeled muCD37-3 (1 nM)
Procedure: Flow cytometry binding assays using BJAB cells and a competitive binding format were used to evaluate binding affinity of chimeric and humanized versions of CD37-3. BJAB cells were incubated with a 1 nM concentration of PE-labeled muCD37-3 antibody and competition was measured by adding varying amounts of muCD37-3, chCD37-3, huCD37-3v1.0 or huCD37-3v1.01. The samples were incubated for 3 hrs at 4° C. Then, the cells were pelleted, washed with FACS buffer and resuspended in 200 μL of PBS containing 1% formaldehyde. Samples were acquired using a FACSCalibur flow cytometer with the HTS multiwell sampler and analyzed using CellQuest Pro (all from BD Biosciences, San Diego, US). The resulting mean PE fluorescence was plotted against the amount of competing antibody used in a semi-log plot. FIG. 9B depicts the dose-response curves generated by non-linear regression for each antibody. The value for the apparent dissociation constant (Kd) of each antibody was calculated using GraphPad Prism v4 (GraphPad software, San Diego, Calif.).

macaque CD37 [9] = molecular target: T2, macaque CD37; experiment: flow cytometry titration on 300-19/CD37mac cells; apparent Kd
Procedure: as §1
Flow cytometry binding assays were carried out using secondary FITC-conjugated goat-anti-human antibodies, analyzed as described in Example 2 and dose-response curves were generated by non-linear regression for each antibody. The value for the apparent dissociation constant (Kd) of each antibody was calculated using GraphPad Prism v4 (GraphPad software, San Diego, Calif.).

B1: huCD37-38-SMCC-DM1 (antibody, human IgG1, kappa, V domains shown)
VH: QVQLQESGPGLVKPSQSLSLTCTVSGYSITSGFGWHWIRQFPGKGLEWMAYILYSGGTDYNPSLKSRISITRDTSKNQFFLRLSSVTAADTATYYCARGYYGYGAWFVYWGQGTLVTVSS
VL: DIVLTQSPASMSASPGERVTMTCSASSSVTYMHWYQQKPGTSPKRWIYDTSKLASGVPARFSGSGSGTSYSLTISSMEAEDAATYYCQQWISNPPTFGGGTKLEIKR
modifications: DM1 attached through SMCC linker; attachment residues and load not stated
notes: SMCC-DM1 conjugate of huCD37-38
B1 was tested, and the Kd (human CD37 [1]) was 1.2 nM, the “EC50 of in vitro cytotoxicity, WST-8 assay, Daudi cells” value (human CD37 [2]) was 0.098 nM and the “EC50 of in vitro cytotoxicity, WST-8 assay, Granta-519 cells” value (human CD37 [2]) was 0.074 nM.

B2: huCD37-3 (antibody, human IgG1, kappa, V domains shown)
VH: QVQVQESGPGLVAPSQTLSITCTVSGFSLTTSGVSWVRQPPGKGLEWLGVIWGDGSTNYHPSLKSRLSIKKDHSKSQVFLKLNSLTAADTATYYCAKGGYSLAHWGQGTLVTVSS
VL: DIQMTQSPSSLSVSVGERVTITCRASENIRSNLAWYQQKPGKSPKLLVNVATNLADGVPSRFSGSGSGTDYSLKINSLQPEDFGTYYCQHYWGTTWTFGQGTKLEIKR
notes: also called huCD37-3 Ab; huCD37-3 antibody
In the case of B2, the Kd (human CD37 [3]) is reported as 0.28 nM, the Kd (human CD37 [4]) is reported as 0.2 nM and the binding result (macaque CD37 [5]) is reported as “no binding”. For the same binder, the Kd (human CD37 [6]) was 0.26 nM.

B3: chCD37-3 (antibody, human IgG1, kappa)
heavy: not shown
light: DIQMTQSPASLSVSVGETVTITCRASENIRSNLAWYQQKQGKSPQLLVNVATNLADGVPSRFSGSGSGTQYSLKINSLQSEDFGTYYCQHYWGTTWTFGGGTKLEIKRTVAAPSVFIFPPSDEQLKSGTASVVCLLNNFYPREAKVQWKVDNALQSGNSQESVTEQDSKDSTYSLSSTLTLSKADYEKHKVYACEVTHQGLSSPVTKSFNRGEC
notes: Chimeric antibody, murine variable regions with human constant regions
For B3, the Kd (human CD37 [7]) was 0.8 nM and the EC50 (human CD37 [8]) was 0.7 nM.

B4: huCD37-38 (antibody, human IgG1, kappa, V domains shown)
VH: QVQLQESGPGLVKPSQSLSLTCTVSGYSITSGFGWHWIRQFPGKGLEWMAYILYSGGTDYNPSLKSRISITRDTSKNQFFLRLSSVTAADTATYYCARGYYGYGAWFVYWGQGTLVTVSS
VL: DIVLTQSPASMSASPGERVTMTCSASSSVTYMHWYQQKPGTSPKRWIYDTSKLASGVPARFSGSGSGTSYSLTISSMEAEDAATYYCQQWISNPPTFGGGTKLEIKR
notes: Humanized antibody
For B4, the Kd (human CD37 [1]) was 1.04 nM, the Kd (human CD37 [4]) was 0.3 nM and the Kd (macaque CD37 [9]) was 1.1 nM.
